In article PMC1424673:

B1: blr3904 ICE-like probe (dsDNA)
DNA 1: CAGGAATTCGATACTTTAGAACCGTTTGAAACTGACCTC
DNA 2: GTCGAGGTCAGTTTCAAACGGTTCTAAAGTATCGAATTC
B2: bll5796 ICE-like probe (dsDNA)
DNA 1: CAGGAATTCGATAGCTTAGAACGCTTCTATGCCGACCTC
DNA 2: GTCGAGGTCGGCATAGAAGCGTTCTAAGCTATCGAATTC
B3: non-specific pSK control (dsDNA)
DNA 1: CAGGAATTCGATATCAAGCTTATCGATACCGTCGACCTC
DNA 2: GTCGAGGTCGACGGTATCGATAAGCTTGATATCGAATTC

Target: T1, Irr (Bradyrhizobium japonicum, UniProt O85719 1-163)
T1 sequence: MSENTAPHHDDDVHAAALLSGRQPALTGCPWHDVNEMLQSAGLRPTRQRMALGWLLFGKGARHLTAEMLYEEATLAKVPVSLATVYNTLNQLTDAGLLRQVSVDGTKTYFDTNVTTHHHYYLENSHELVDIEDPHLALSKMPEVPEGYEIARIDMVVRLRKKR
Experiment: EMSA

| Binder | binding result |
| --- | --- |
| B1 | binds |
| B2 | binds |
| B3 | no binding |
